Experimental data: patent US20040162238A1
Like-named read-outs stand apart in the source and are kept apart here.

How the values were obtained:
Test in all cases: cell-based or functional assay
[1] = target: GPCR73b receptor (Homo sapiens (Human)) (UniProt Q8NFJ6)
[2] = target: GPCR73a receptor (Homo sapiens (Human)) (UniProt Q8TCW9)
[3] = target: GPCR73b receptor (Homo sapiens (Human)) (UniProt Q8NFJ6); remark: listed apart in the source
[4] = target: GPCR73a receptor (Homo sapiens (Human)) (UniProt Q8TCW9); remark: listed apart in the source
[5] = target: Zven1 receptor on Wky12-22 cells (rat)

Chain of GPCR73a receptor (Homo sapiens (Human)) (Q8TCW9 whole entry): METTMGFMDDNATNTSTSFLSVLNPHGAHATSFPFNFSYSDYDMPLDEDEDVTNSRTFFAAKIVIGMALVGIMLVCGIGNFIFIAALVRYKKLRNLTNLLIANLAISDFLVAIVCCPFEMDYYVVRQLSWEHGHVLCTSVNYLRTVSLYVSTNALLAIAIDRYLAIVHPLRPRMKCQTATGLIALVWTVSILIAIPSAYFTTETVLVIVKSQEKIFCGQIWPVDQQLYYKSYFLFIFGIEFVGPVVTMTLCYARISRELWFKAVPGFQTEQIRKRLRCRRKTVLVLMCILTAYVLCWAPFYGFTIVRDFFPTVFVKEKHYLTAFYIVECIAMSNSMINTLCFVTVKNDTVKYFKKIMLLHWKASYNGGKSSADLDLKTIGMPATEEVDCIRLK
Chain of GPCR73b receptor (Homo sapiens (Human)) (Q8NFJ6 whole entry): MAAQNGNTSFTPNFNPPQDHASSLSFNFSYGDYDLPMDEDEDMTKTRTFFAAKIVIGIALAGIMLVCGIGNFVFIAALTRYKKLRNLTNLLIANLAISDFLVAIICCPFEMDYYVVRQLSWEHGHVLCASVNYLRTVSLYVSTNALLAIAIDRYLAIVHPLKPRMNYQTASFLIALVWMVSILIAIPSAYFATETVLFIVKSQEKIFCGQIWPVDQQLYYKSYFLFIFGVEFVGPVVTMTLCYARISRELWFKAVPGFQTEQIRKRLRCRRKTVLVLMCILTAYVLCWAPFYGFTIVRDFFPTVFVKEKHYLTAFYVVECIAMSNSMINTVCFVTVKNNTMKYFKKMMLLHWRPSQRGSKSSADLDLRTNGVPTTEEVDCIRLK

B1: Zven2 ("endocrine-gland-derived vascular endothelial growth factor") protein purchased from Peprotech, Inc. (ligand)
chain: AVITGACERDVQCGAGTCCAISLWLRGLRMCTPLGREGEECHPGSHKVPFFRKRKHHTCPCLPNLLCSRFPDGRYRCSMDLKNINF
For B1, the SRE luciferase fold-induction at 3.2 ng/ml, Rat2 cells with GPCR73b (fold-induction) [1] was 1.4, the SRE luciferase fold-induction at 32 ng/ml, Rat2 cells with GPCR73b (fold-induction) [1] was 2.7 and the SRE luciferase fold-induction at 100 ng/ml, Rat2 cells with GPCR73b (fold-induction) [1] was 4.1. It also gave an SRE luciferase fold-induction at 320 ng/ml, Rat2 cells with GPCR73b (fold-induction) [1] of 5.8, an SRE luciferase fold-induction at 1000 ng/ml, Rat2 cells with GPCR73b (fold-induction) [1] of 6.1 and an SRE luciferase fold-induction at 1 ng/ml, Rat2 cells with GPCR73a (fold-induction) [2] of 1.2. It also gave an SRE luciferase fold-induction at 3.2 ng/ml, Rat2 cells with GPCR73a (fold-induction) [2] of 1.6, an SRE luciferase fold-induction at 10 ng/ml, Rat2 cells with GPCR73a (fold-induction) [2] of 2.5 and an SRE luciferase fold-induction at 32 ng/ml, Rat2 cells with GPCR73a (fold-induction) [2] of 5.8. It also gave an SRE luciferase fold-induction at 100 ng/ml, Rat2 cells with GPCR73a (fold-induction) [2] of 11.4, an SRE luciferase fold-induction at 320 ng/ml, Rat2 cells with GPCR73a (fold-induction) [2] of 24.4 and an SRE luciferase fold-induction at 1000 ng/ml, Rat2 cells with GPCR73a (fold-induction) [2] of 20. The SRE luciferase fold-induction at 1 ng/ml, Rat2 cells with GPCR73b (fold-induction) [3] was 1.1, the SRE luciferase fold-induction at 3.2 ng/ml, Rat2 cells with GPCR73b (fold-induction) [3] was 1.3 and the SRE luciferase fold-induction at 10 ng/ml, Rat2 cells with GPCR73b (fold-induction) [3] was 1.8. It also gave an SRE luciferase fold-induction at 32 ng/ml, Rat2 cells with GPCR73b (fold-induction) [3] of 2.8, an SRE luciferase fold-induction at 100 ng/ml, Rat2 cells with GPCR73b (fold-induction) [3] of 5.6 and an SRE luciferase fold-induction at 320 ng/ml, Rat2 cells with GPCR73b (fold-induction) [3] of 8.3. It also gave an SRE luciferase fold-induction at 1000 ng/ml, Rat2 cells with GPCR73b (fold-induction) [3] of 8.4, an SRE luciferase fold-induction at 1 ng/ml, Rat2 cells with GPCR73a (fold-induction) [4] of 0.95 and an SRE luciferase fold-induction at 3.2 ng/ml, Rat2 cells with GPCR73a (fold-induction) [4] of 1.3. The SRE luciferase fold-induction at 10 ng/ml, Rat2 cells with GPCR73a (fold-induction) [4] was 2.6, the SRE luciferase fold-induction at 32 ng/ml, Rat2 cells with GPCR73a (fold-induction) [4] was 7.2 and the SRE luciferase fold-induction at 320 ng/ml, Rat2 cells with GPCR73a (fold-induction) [4] was 20.5. It also gave an SRE luciferase fold-induction at 1000 ng/ml, Rat2 cells with GPCR73a (fold-induction) [4] of 15.

B2: Zven1 protein produced in baculovirus with a C-terminal Glu-Glu tag (ligand)
chain: AVITGACDKDSQCGGGMCCAVSIWVKSIRICTPMGKLGDSCHPLTRKVPFFGRRMHHTCPCLPGLACLRTSFNRFICLAQKGLEYMPMD
B2 was tested, and the SRE luciferase fold-induction at 1 ng/ml, Zven1 heated at 56 C for 30 minutes, Rat2 cells with GPCR73a (fold-induction) [2] was 1.8, the SRE luciferase fold-induction at 1 ng/ml, fresh Zven1, Rat2 cells with GPCR73a (fold-induction) [2] was 2.5 and the SRE luciferase fold-induction at 3.2 ng/ml, Zven1 heated at 56 C for 30 minutes, Rat2 cells with GPCR73a (fold-induction) [2] was 3.7. It also gave an SRE luciferase fold-induction at 3.2 ng/ml, fresh Zven1, Rat2 cells with GPCR73a (fold-induction) [2] of 7.1, an SRE luciferase fold-induction at 10 ng/ml, Zven1 heated at 56 C for 30 minutes, Rat2 cells with GPCR73a (fold-induction) [2] of 10 and an SRE luciferase fold-induction at 10 ng/ml, fresh Zven1, Rat2 cells with GPCR73a (fold-induction) [2] of 13.1. The SRE luciferase fold-induction at 32 ng/ml, Zven1 heated at 56 C for 30 minutes, Rat2 cells with GPCR73a (fold-induction) [2] was 14.8, the SRE luciferase fold-induction at 32 ng/ml, fresh Zven1, Rat2 cells with GPCR73a (fold-induction) [2] was 18.7 and the SRE luciferase fold-induction at 100 ng/ml, Zven1 heated at 56 C for 30 minutes, Rat2 cells with GPCR73a (fold-induction) [2] was 18.6. For the same binder, the SRE luciferase fold-induction at 100 ng/ml, fresh Zven1, Rat2 cells with GPCR73a (fold-induction) [2] was 20.5 and the ERK-Map kinase activity EC50 in Wky12-22 cells (Arrayscan) [5] was 0.5 nM.
